Columns and labels:
metastatic colon cancer = assay: Treatment of metastatic colon cancer with P2PDox conjugate of Class III anti-CEA antibody (Example 11); type: in vivo, human; details: 8 weeks from treatment begin
Procedure: A prodrug form of 2-pyrrolinodoxorubicin, referred to herein as “P2PDox”, is prepared and conjugated to the hMN-14 antibody as disclosed in U.S. patent application Ser. No. 14/175,089, the Figures and Examples sections of which are incorporated herein by reference.
A person with metastatic colon cancer (3-5 cm diameters) to their left and right liver lobes, as well as a 5 cm metastasis to their right lung, and an elevated blood CEA value of 130 ng/mL, is treated with a 150 mg dose of hMN-14 Class III anti-CEA antibody conjugated to P2PDox at 4 drug molecules per IgG, administered by slow intravenous infusion every other week for 4 doses. […] At the same time, their blood CEA titer is reduced to 30 ng/mL. Repeated courses of therapy continue as their neutropenia normalizes.

[1] = test system: Capan 1 human pancreatic carcinoma; assay: In vivo therapy of athymic nude mice bearing Capan 1 pancreatic tumor xenografts with antibody-CL2A-SN-38 conjugates; details: Capan 1 s.c. xenograft, FIG. 1
Procedure: FIG. 1. In vivo therapy of athymic nude mice, bearing Capan 1 human pancreatic carcinoma, with antibody-CL2A-SN-38 conjugates.
(§1) The efficacy of drug-conjugated Class III anti-CEA antibody was investigated. Immunoconjugates comprising antibody-SN-38 conjugates were prepared as discussed in U.S. Pat. No. 7,999,083, the Figures and Examples sections of which are incorporated herein by reference. Immune-compromised athymic nude mice (female), bearing subcutaneous human pancreatic or colon tumor xenografts were treated with either specific CL2A-SN-38 conjugate or control conjugate or were left untreated. The therapeutic efficacies of the specific conjugates were observed.

[2] = test system: GW-39 human colonic tumor; assay: In vivo therapy of lung metastases of GW-39 human colonic tumors in nude mice; details: 250 μg, q4d×8, therapy initiated 14 days after i.v. tumor injection
Procedure: FIG. 3. Survival curves of hMN14-CL-SN-38 treated mice bearing GW-39 lung metastatic disease.
Alternative immunoconjugates, comprising different linkers between the antibody and the SN-38, were prepared as disclosed in U.S. Pat. No. 7,591,994, the Figures and Examples section of which are incorporated herein by reference. A lung metastatic model of colonic carcinoma was established in nude mice by i.v. injection of GW-39 human colonic tumor suspension, and therapy was initiated 14 days later. Specific anti-CEACAM5 antibody conjugates, hMN14-CL1-SN-38 and hMN14-CL2-SN-38, as well as nontargeting anti-CD22 antibody control conjugates, hLL2-CL1-SN-38 and hLL2-CL2-SN-38 and equidose mixtures of hMN14 and SN-38 were injected at a dose schedule of q4d×8, using different doses. […] The dose-responsiveness of therapeutic effect of conjugated antibody was also observed.

[3] = test system: LS174T human colon carcinoma; assay: In vivo therapy of athymic nude mice bearing LS174T colon carcinoma xenografts; details: LS174T s.c. xenograft, FIG. 2
Procedure: FIG. 2. In vivo therapy of athymic nude mice, bearing LS174T human colon carcinoma, with hMN-14-CL2A-SN-38 conjugate.
as §1

rectal carcinoma = assay: Continuous infusion of labetuzumab-SN-38 in patient with liver metastases of rectal carcinoma (Example 8); type: in vivo, human
Procedure: The patient was previously resected for a rectal carcinoma and receives pre- and post-operative radiochemotherapy as per conventional treatment. […] They then receive a repeat continuous infusion therapy 5 weeks later, now for 3 weeks, at 1 mg/kg.

[4] = test system: advanced metastatic colon cancer; assay: Therapy of advanced metastatic colon cancer with anti-CEACAM5 immunoconjugate (Example 9); type: in vivo, human; details: 12 mg/kg every other week, irinotecan-unresponsive
Procedure: The patient is a person who fails prior therapies for metastatic colon cancer. The first line of therapy is FOLFIRINOX+AVASTIN® (built up in a stepwise manner) starting with IROX (Irinotecan+Oxaliplatin) in the first cycle. […] This is followed by surgery to remove tumor tissue. […] This leads to the initiation of the second line regimen (FOLFIRI+Cetuximab). […] Then RF ablation of liver metastases is performed, followed by continuation of adjuvant chemotherapy with FOLFIRINOX+Cetuximab, followed by maintenance Cetuximab for approximately one year. […] This leads to a wedge resection of the lung nodules. Subsequently FOLFIRI+Cetuximab is restarted and continued. Later CT scans show both lung and liver metastases.
At the time of administration of the hMN-14-SN-38 immunoconjugate, the patient has advanced metastatic colon cancer, with metastases of both lung and liver, which is unresponsive to irinotecan (camptothecin). The hMN-14-SN-38 immunoconjugate is administered at a dosage of 12 mg/kg, which is repeated every other week.
The effect of the antibody moiety in improved targeting of the camptothecin accounts for the efficacy of the SN-38 moiety in the cancer that had been previously resistant to unconjugated irinotecan.

[5] = test system: metastatic colonic cancer (Stage IV); assay: Therapy of a patient with advanced colonic cancer with IMMU-130 (Example 5); type: in vivo, human
Procedure: This patient is a person initially diagnosed with metastatic colonic cancer (Stage IV). […] Their baseline CEA titer just before this therapy is 15 ng/mL. […] The patient continues their investigational therapy.

[6] = test system: stage-IV metastatic colonic cancer; assay: Therapy of advanced colon cancer patient refractory to prior chemo-immunotherapy with IMMU-130 (Example 4); type: in vivo, human
Procedure: Thereafter, they were given courses of cetuximab, either alone or combined with FOLFIRI (leucovorin, 5-flurouracil, irinotecan) chemotherapy during the next year or more. […] The index lesions chosen by the radiologist for measuring tumor size change by computed tomography were the mid-lobe of the right lung and the liver metastases, both totaling 91 mm as the sum of their longest diameters at the baseline prior to IMMU-130 (anti-CEACAM5-SN-38) therapy.
This patient received doses of 16 mg/kg of IMMU-130 by slow IV infusion every other week for a total of 17 treatment doses.

gastric adenocarcinoma = assay: Gastric cancer patient with stage IV metastatic disease treated with IMMU-130 (Example 6); type: in vivo, human
Procedure: The patient is a person who sought medical attention because of gastric discomfort and pain related to eating for about 6 years, and with weight loss during the past 12 months. […] The patient has their gastric tumor resected, and then has baseline CT measurements of their metastatic tumors.
The patient is then given experimental therapy with IMMU-130 (anti-CEACAM5-SN-38) on a weekly schedule of 8 mg/kg. […] The patient then undergoes a CT study to measure their metastatic tumor sizes and to view the original area of gastric resection.

[7] = compared with rituximab; cited from earlier work
[8] = test system: LS174T human colon adenocarcinoma; assay: Biodistribution of 131I-labelled humanized MN-14 IgG in nude mice bearing human colon cancer; type: in vivo
Procedure: The biodistribution of labeled humanized MN-14 IgG in nude mice bearing human colon cancer was determined. For radiolocalization studies, at 4-5 weeks female athymic mice (nu/nu, Harlan, Indianapolis, Ind.) were given s.c. 0.2 ml of a 10% suspension of LS174T human colon adenocarcinoma prepared from a xenograft serially propagated in an athymic mouse (Sharkey et al., Cancer Res., 50: 828-34 (1990)). After waiting 2 weeks for tumor development, the mice were injected i.v. with 20 μCi (about 2 μg) of ^131I-labelled humanized MN-14 antibodies. Groups of 4-5 mice were sacrificed at intervals thereafter, and radioactivity localized in tissues. […] Tumor:nontumor ratios were excellent.

[9] = 131I-labelled, i.v., nude mice bearing LS174T

hMN-14 Class III anti-CEA antibody conjugated to P2PDox
reduction of the total mean diameters of the 3 target lesions (CT) (metastatic colon cancer; 150 mg every other week for 4 doses): 25% | response by RECIST1.1 criteria (metastatic colon cancer): good stable disease response | blood CEA titer (metastatic colon cancer; 130 ng/mL before): 30 ng/mL

hRS7-CL2A-SN-38
therapeutic efficacy [1]: better efficacies than control hA20-CL2A-SN-38 conjugate

hLL2-CL1-SN-38: nontargeting anti-CD22 antibody control conjugate
median survival [2]: 56 days

hLL2-CL2-SN-38: nontargeting anti-CD22 antibody control conjugate
median survival [2]: 77 days

IMMU-130
therapeutic efficacy [1]: better efficacies than control hA20-CL2A-SN-38 conjugate | therapeutic efficacy [3]: more efficacious than non-treatment | liver metastases by CT (rectal carcinoma; continuous infusion 2 mg/kg over 17 days, then 1 mg/kg for 3 weeks, three weeks later): 1 of the liver metastases has disappeared | blood CEA titer (rectal carcinoma; three weeks after second infusion, 6.3 ng/mL before): 2.4 ng/mL | nausea and vomiting (rectal carcinoma; while under therapy): grade 2 | neutropenia (rectal carcinoma; while under therapy): grade 2 | response by RECIST criteria [4]: partial response | tolerability ([5]; 6 mg/kg twice weekly for 2 weeks, one week rest, more than 20 doses): tolerated very well, without any major hematological or non-hematological toxicities | shrinkage of the index tumor lesions ([5]; 8-week evaluation): 21% | ascites and pleural effusion ([5]; 13 weeks): both decrease | shrinkage of the index tumor lesions ([5]; 13 weeks): 27% | plasma CEA titer ([5]; within 2 months of therapy, baseline 15 ng/mL): 1.3 ng/mL | side effects (nausea, diarrhea, fatigue) ([6]; 16 mg/kg IV every other week, after the first treatment and treatments 4 and 5): grade 1 nausea, diarrhea and fatigue | duration of fatigue after the first infusion ([6]; 16 mg/kg every other week): 2 weeks | duration of nausea, diarrhea and occasional vomiting ([6]; 16 mg/kg every other week): 2 to 3 days | alopecia ([6]; 16 mg/kg every other week, after treatment 3): grade 2 | change of sum of index lesions (CT) from baseline ([6]; after 4 treatments, 16 mg/kg every other week): 28.6% | reduction of sum of index lesions (CT) from baseline ([6]; after 8 treatments): 40.6% | response according to RECIST criteria ([6]; after 8 treatments): partial remission | anti-labetuzumab antibody in blood ([6]; after 16 doses): none was detected | plasma CEA titer ([6]; after the third therapy dose, baseline 12.6 ng/mL): 2.1 ng/mL | index lesions less than baseline (CT) ([6]; another 2 months after the 8-treatment evaluation): 31.9% | diarrhea (gastric adenocarcinoma; 8 mg/kg weekly, after 3 weeks): grade 1 | neutropenia (gastric adenocarcinoma; 8 mg/kg weekly, after 3 weeks): grade 2 | decrease of the sum of the metastatic lesions (CT, RECIST) vs. baseline (gastric adenocarcinoma; 8 mg/kg weekly, first CT study on therapy): 23% | decrease of the sum of all metastatic lesions (CT) (gastric adenocarcinoma; after a total of 13 infusions): 41% | response by RECIST (gastric adenocarcinoma; after a total of 13 infusions): partial response | CEA titer (gastric adenocarcinoma; at first CT study, pre-IMMU-130 baseline 14.5 ng/mL): 7.2 ng/mL | blood CEA (gastric adenocarcinoma; last measurement, after maintenance therapy every third week): 4.8 ng/mL

veltuzumab: humanized IgG1 antibody against CD20
immunogenicity in subjects [7]: less immunogenic in subjects than rituximab

hMN-14: humanized Class III anti-CEA (anti-CEACAM5) antibody; heavy and light chains SEQ ID NO:1 and SEQ ID NO:2
time of maximum tumor accretion [8, 9]: ≤ 2 days | tumor accretion of the antibody [8, 9]: excellent tumor accretion | Tumor:nontumor ratios ([8]; 131I-labelled, nude mice bearing LS174T): excellent | uptake by the spleen ([8]; compared with mMN-14): higher uptake of hMN-14 by the spleen than there was of mMN-14 | blood clearance ([8]; compared with parental mMN-14): more rapid than the parental mMN-14 antibody
